Experiment: label from the status in PepcDB records
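Also: failed if final PepcDB status was selected cloned or expressed and not failed if soluble or beyond.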

Sequence | protein production
MEKKVHYKMYKAGKKWVFVMLSTVALTGIMVMSGNIAKADAVAQSSTEQVAKIDTTSATTTSTQATAQVEKATNNVNESNAAQTSATTTTEQSSVNAGATSSSQNNKQATTTSVAASQNTSVANKDQVSSTQSSTTQNSEEPKVETPVNTADNASQKNVNGNWYLVDNNTGKNLTGFQEIKYQNKVVYYAPSNAQMQYGWQDINNNRYYFDTFDGAMTTGQKNINGNWYMFDAQGVLQTGFQRIESQNKTVYYSEDKDKLGQMQYGQKNIKGNWYNFDTYDGAMKTGFVTIPSQNKTVYYSEDKAKLGQMQYGKTKVNGKTYYFDTYDGAMKKGLTNINGNYYYFDNSGVMATNQKNINGNWYMFNDQGIMQTGFVHIPSQGKTVYYSKDKDKLGQMLYGQKNINGRWYNFDTYDGAMKTGFVYIPSQNKTVYYDENQSTLGQMKYGFQNINGKTYYLDTFDGSMKTGQKNINGNWYMFDDKGVMKVGFVTIPSQNKTVYYSEDKAKLGQMQYGKTGIKGKTYYFDTFDGAMKTGVFYNKETGTLQYYGNNGQMNYGNVVINGKVYAFDAAGNYLGKGNVTIDGHDYYLGNNNQVLVGFQKISNNTYYYNKDNGQKEYGQKNIDGSWYMFDDKTGIMKTGFVTIPSQNKTVYYGNNGQMQYGQRNIDGHWYMFDTYNGAMKTGLVYIPEQNKTVYYGSNGQMQYGVFRVGKITYTADHISGAIIGVYNDAEVIGQNPELPTGCEITAVTMMLRYAGANINKIQLANEMPRSNNGDYGFVGNPFSVTGWWVFPTGVAPVVNKHLGHSQVMTGASLESIKNKLLNGHLVVAWVANMNGFVNHAIALTGYNGNTLYYNNPWTARKESMSVSSFYTHWNADKQRALSY | failed
MGSSHHHHHHSSGLVPRGSHDSAQSDLKEVMVLNATESFVYEPKEQKKMFHATVATENEVFRVKVFNIDLKEKFTPKKIIAIANYVCRNGFLEVYPFTLVADVNADRNMEIPKGLIRSASVTPKINQLCSQTKGSFVNGVFEVHKKNVRGEFTYYEIQDNTGKMEVVVHGRLTTINCEEGDKLKLTCFELAPKSGNTGELRSVIHSHIKVIKTRK | not failed
TETSPDKWLIDGDTPLDEVERAIGYELPEGDYETISGLLFDHANALLKTGDVIEIPLDFEPEDYLNNTSPTQRILRITVLEVERNVPVKLALALLEDHPDNHPAPKENR | not failed
MLRVVSLTLVTLISAVAAAAAEPQAGDDLAICRDRQAELQARAQACDNLLNADRLAGKDKAIALSVRGNTLINKRDYARAIETLSMAVDLDPDNVIVLNLRGLAYERSGKDDLAMADYNLALQKRPTYGVPYNNRGVIHLRRGALQSALDDFNLSIKYTPKFLLGWTNRARVRTLMKDFDGAIADFAEAEKIDPAAPQIAGNRCITWGMMGKYDQAFADCNGLIEKQPKNVYAINNRADVSMMKGDLDAALKDYNSAIQINPNNVRAHSGRGQIYERRKDLAQARADYRAAAYSLTKFDELDVARARAVAQERLAALTPQAPAGATGRRVALVIGNGAYKNVHALPNPPRDSKLIANALRDVGFQTVISVSDLTRDKFFEALQTFAAEAEKADWAVVYYAGHGFEIGGVNYLVPVDAKLAADRDAEAQAVALEQVIAAVGAARKVRLVMLDACRDNPFAPTMQRTLSLKLVDKGFSNIEPGAGFMVVYAAKHGETAMDGDGGTDSPFATALAREIKEPRVEIRKLFDIVRDDVWSATRHEQQPFTYGSPPGREDFYFAAGK | failed
MDYSQFLYMKEELSLIAVILILFVVDLLTCPDQKGATPKVNVRSLTLPAVILMTLHTVINLFPGTPAEAFGGMYQYTPMQTIIKAVLNVGTIIVLLMAHEWLKREDTRIKQGEFYVLTLSTLLGMYFMISAGHFLMFFIGLEMASIPMAALVAFDKYRHHSAEAGAKYILTALFSSALLLFGLSMIYGTSGTLYFNDLPGHITGNMLQIMAFVFFFAGMGFKISLVPFHLWTADVYEGAPTAVTSYLSVISKGSAAFVLMTILMKVFAPMVAQWQEVLFWVTIASITIANLFAIRQQNLKRFMAFSAISQAGYIMLGVIGGSEMGMTALVYYVLVYLAANLGVFAVISIVEQRSNKVEIDDYNGLYKTNPKLAFIMTLALFSLAGIPPFAGFFSKFFIFMAAFNSGFHLLVFIALINTVVSLYYYLLIVKAMYINPNEEPIPTFRSDNYTKVSLVLCTLGIIALGIASCIYQGIDKFSFGMGM | failed
MGHHHHHHSHMASPSKAVIVPGNGGGDVTTHGWYGWVKKELEKIPGFQCLAKNMPDPITARESIWLPFMETELHCDEKTIIIGHSSGAIAAMRYAETHRVYAIVLVSAYTSDLGDENERASGYFTRPWQWEKIKANCPYIVQFGSTDDPFLPWKEQQEVADRLETKLHKFTDCGHFQNTEFHELITVVKSLLKVPA | failed
MIEEAPPHPSAPMAASPSVTTALKHAPLGIAIFDNQMRYLAASRQYLTDQHLPPDLPLIGRLHYDAFPEVPQKWRDLHARVLAEGVELRHEGDPYVDREGRTQWIRWSMAPWRTDGGGIGGLVLYTEVVT | failed
MVTIPIFLAIIGATMMVVVWSAKQTKSAADFYTAGGGITGTQNGWAIAGDYMSAASFLGISGIISLYGYDGFMYSVGWLVAYITVLLIVAEPCRNAGKFTLGDILSFRTEPKSVRAAAAISTVAVSTFYLTAQMVGAGKLMQLLLGIPYKTAVIGVGILMVGYVVFGGMTATTWVQIIKAGLLMSGAALLSVLVGLKSGMSPFQFFNDIATSPNIIEHVQKVVLKDPVAVAGFDYGQRFLEPGLFLKNPLDQISLGMALVLGTAGMPHILMRFFTVPTAQAARKSVIIAMFIIGSFYILTTLLGFGAAIHVTPQSIMNVDKGGNMAAMMLAQQLGGDIHPFLGDLLLAFLCAVAFATILAVVSGLVLAASAAIAHDIYVNVIKGGHADQHEQVKAARITSFVVGACGIAIGIAAEKQNVAHLVALAFAVAASGNLPVVVLSLFWKKFNTAGVIAGLVTGTVVSIALVMVSPNMTYPKKVAEDAQKVVVKLEEKQAGGAVLTEKEMKDLGKAKADYEKNKDGKSFLGLDKPLFALKNPGVVSIPLGFIAAVIAALAFPSRRSEEMFDELYVRQNTGIGIAKAVDH | failed
MPDGPDPSSYGPDESPGPDPEEPSSSETAPARHARTTTASRRGHARERMPVSPDESASTFTFDRVVRFLLGAAAVGSVGWMVWYFAGIVLYLIVGGLLAYLLRPPVDYIQGLGVGRVPAILVAFAVFLGVIVVIVTSVVPFITRQVQDLSQLITIDTAAYVANLIEAQVQGVVPLEQGVLEENVRQAAESLMRGDLVEGQQVAETVSSVVSVFTNIVYAVVIVPFVTFFLLKDELRIRRSLLHLVPNRYFEVTLSILAKVELNIGRYFRALLVQGTAIAVIASTLLWIVGLRGAIAIGIFTGLANTIPYFGPFLGFLAGTLVGIAQTGDVSLVPGVALAMALTQLADNVLLQPLIFSRAAQTHPLVILFVVLAGAQLGGILGMLMAIPLTTTLRVIVEQLLWSLRNYRILRAG | failed
LKPLSIIYNGKSGFHASDKEGVYEQIMTLFTRYDFEIQVFELNEKITFDELMEQVLLRHLNLNTSEYKGVIVAAGGDGTLNAVASRLVDTPIPMGILPLGTFNYVARVLNIPLDLLAAAEVIADGTIRSVHVATINDRIYLNNASLG | failed
MKSIEKDKYQDIRDAVRSLCSEFDDKYHRKIDEAKAYPEEFVNKLTKAGWLAALIPEEFGGSGLGLTEASIIMEEINRSGGNSGACHGQMYNMNTLLRHGSDKQKEFWLPRIATGEWRLQSMGVTEPTAGTDTTRIKTTAVKREDRYVINGQKVWISRVQHSDWMILLVRTTPLANVKRKSEGMSIFMVDIKEAMKNGMTVRPIPNMVNHETNELFFDNLEIPEENLIGEEGMGFHYILDGLNAERTLIAAECIGDGYWFMDRVTRYTCEREVFGRPIGQNQGVQFPIAEAFIAVEAANLMRFKACELFDQHLDCGAQANMAKYLAAKASWEAANACLQFHGGYGFACEYDIERKFRETRLYQVAPISTNLILSYIAEHVLEMPRSF | failed
MKGLERESHFTLNENAMFFECAYSCDNALFLQLDDRSFFITDSRYTQEAKESVQPKNGVLAEVVESSDLVQSAIDLIVKSSVKKLFFDPNQVNLQTYKRLNSALGDKVALEGVPSYHRQKRIIKNEHEIQLLKKSQALNVEAFENFAEYVKKIFDEKESLSERYLQHKVKDFLTREGVYDLSFEPILALNANASKPHALPSAKDFLKAEHSILLDMGIKYERYCSDRTRTAFFDPKDFVFKREQSFKDKERQKIYDIVKEAQEKAISGIRAGMTGKEADSLARGVISDYGYGQYFTHSTGHGIGLDIHELPYISSRSETILEEGMVFSVEPGIYIPGFFGVRIEDLVVIKNSRSELL | failed

Source: a protein production outcome set (Wang et al. 2014)
